Test results reported in PMC10311653 (ACS Central Science, 2023).

Biological target: T1, wildtype (WT) human interleukin-1β (Homo sapiens, UniProt P01584)
T1 construct: human interleukin-1β (hIL-1β); pET28a vector; also called WT hIL-1β; hIL-1β; source: E. coli BL21 (DE3), purified (Ni-NTA, Superdex 75 SEC)
Experiment: ELISA; antigen (100 ng) coated on the plate; scFv-mFc added in 3% skim milk in DPBST, 2 h at 37 °C; EC50
Details: both partners purified

binding result: binds
B1: CL-E2-mFc (Fc fusion, mouse)
VH: EVQLKESGAELMKPGASVKISCKATGYTFSSYWIEWVKQRPGHGLEWIGEILPGSGSTNYNEKFKGKATFTADISSNTAYMQLSSLTSEDSAVYYCASGGYRPSMDFWGQGTSVTVSS
VL: DIVMTQSQKFMSTSVGDRVSITCKASQNVRTAVAWYQQKPGQSPKALIYLASNRHTGVPDRFTGSGSGTDFTLTITNVQSEDLADYFCLQHWNYPLTFGAGTKLELK
notes: as the scFv of m23; also called CL-E2-mFc fusion antibody; source: HEK 293F, transfected, purified (Protein A, Superdex 200 SEC)
